Series [1] relates to GST-fused cytoplasmic domain of LRP6 with the PKA site mutated (Thr1548 to Ala).
The subject of series [2] is Glutathione S-transferase (GST)-fused cytoplasmic domain of LRP5 [GST: P08515].
Series [3] deals with T1, Glutathione S-transferase (GST)-fused cytoplasmic domain of LRP6.
T1 sequence: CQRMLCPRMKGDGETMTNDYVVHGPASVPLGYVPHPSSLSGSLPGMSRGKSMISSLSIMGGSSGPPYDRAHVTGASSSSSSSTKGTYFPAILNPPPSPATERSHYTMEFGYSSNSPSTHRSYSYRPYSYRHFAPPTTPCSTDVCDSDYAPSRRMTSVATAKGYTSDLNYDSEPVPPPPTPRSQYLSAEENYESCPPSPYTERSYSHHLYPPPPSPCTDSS

In a further series the test system is LRP6-Gαs interaction. The experiment in a line: Coimmunoprecipitation and Western blotting of LRP6-associated G proteins in HEK 293 cells. It counts as cell-based, human. On the procedure:
(§1) Cell Culture, Transfections, Coimmunoprecipitation, and Western Blotting Analysis. HEK293,UMR-106,C2C12, and MEF cells were maintained in Dulbecco's modified Eagle's medium (DMEM) with 10% fetal calf serum (FCS). Transfections were performed with Lipofectamine reagent (Invitrogen). Immunoprecipitations and Western blotting analysis of cell lysates were performed as described previously (37). Briefly, cells were lysed in immunoprecipitation buffer [50 mM tris-HCl (pH7.5), 150 mM NaCl, 1% Triton X-100, and 0.5% sodium deoxycholate containing protease inhibitors. The lysates were subjected to immunoprecipitation by incubation with the appropriate antibodies followed by absorption on protein G-Sepharose. The immunoprecipitates were separated by SDS-polyacrylamide gel electrophoresis (SDS-PAGE) and transferred onto a nitrocellulose membrane. Western blots were characterized with the SuperSignal West Femto Substrate system (Pierce, Thermo Fisher Scientific Inc.). Primary antibodies used for Western blotting analysis and immunoprecipitations included mouse antibody against the FLAG tag (M2, Sigma-Aldrich), rabbit antibody against VSVG (Covance), mouse antibody against the HA tag (16B12, Covance), rabbit antibody against PTH1R, (PRB-640P, Covance), rabbit antibodies against CREB and phosphorylated CREB (pCREB) (both from Upstate), and rabbit antibody against Gαs and mouse antibody against Gb1 (both from Santa Cruz Biotechnology).
For orientation: In western blotting, separated proteins are transferred to a membrane and probed.

A further series concerns cAMP production. Kind of series: ICUE3 FRET biosensor, cAMP kinetics in live HEK 293 cells. The format is cell-based, human. The conditions noted are these: PTH(1-34) 50 nM. From the text: Detection of the Temporal Dynamics of cAMP Signaling in Living Cells. The binding of cAMP to Epac induces a conformational change that liberates the catalytic domain of Epac from intrasubunit allosteric inhibition (42). A chimeric protein (ICUE3) generated by fusing the N terminus of a truncated form of Epac to enhanced CFP (ECFP) and the C terminus of Epac to citrine, an improved version of yellow fluorescent protein (YFP), was produced as previously described (43). Sandwiching these conformationally responsive elements of Epac between a FRET pair (citrine and ECFP) enables cAMP production and degradation to be monitored by detecting changes in FRET. Therefore, changes in cAMP could be monitored in real time in single live cells. Experiments were performed as previously described (41). […] The ratios of cyan-to-yellow emissions were then calculated at different time points and normalized by dividing all of the ratios by the emission ratio just before stimulation, thereby setting the basal emission ratio to 1. […] The fluorescence intensities of ECFP before (Fda) and after (Fd) citrine photobleaching and the equation E=1−(Fda/Fd) were used to calculate the FRET efficiency.

The subject of another series is LRP5-Gαs interaction. Kind of series: Coimmunoprecipitation and Western blotting of LRP5-associated Gαs in HEK 293 cells. It counts as cell-based, human. The conditions noted are these: HEK 293 cells with PTH1R and HA-tagged LRP5, PTH(1-34) 50 nM. On the procedure: as §1, with “Primary antibodies used for Western blotting analysis and immunoprecipitations included mouse antibody against the FLAG tag (M2, Sigma-Aldrich), rabbit antibody against VSVG (Covance), mouse antibody against the HA tag (16B12, Covance), rabbit antibody against PTH1R, (PRB-640P, Covance), rabbit antibodies against CREB and phosphorylated CREB (pCREB) (both from Upstate), and rabbit antibody against Gαs and mouse antibody against Gb1 (both from Santa Cruz Biotechnology).” left out

For series [4], the system named is GST-fused cytoplasmic domain of LRP6 with the GSK-3 site mutated (Ser1544 to Ala).
Series [5] concerns the target T2, VSVG-tagged LRP6 (wild type) (human, UniProt O75581 20-1613).
T2 construct: also called WT-LRP6; WT LRP6; not shown: VSVG tag
Kind of series: co-immunoprecipitation and Western blotting, HEK 293 cells.

Where [6] appears, read: lysis buffer containing AlF4− (100 mM AlCl3, 10 mM NaF).

Sequence of Glutathione S-transferase (GST)-fused cytoplasmic domain of LRP5 [GST: P08515] (P08515 whole entry, looked up, the tested form may be a part): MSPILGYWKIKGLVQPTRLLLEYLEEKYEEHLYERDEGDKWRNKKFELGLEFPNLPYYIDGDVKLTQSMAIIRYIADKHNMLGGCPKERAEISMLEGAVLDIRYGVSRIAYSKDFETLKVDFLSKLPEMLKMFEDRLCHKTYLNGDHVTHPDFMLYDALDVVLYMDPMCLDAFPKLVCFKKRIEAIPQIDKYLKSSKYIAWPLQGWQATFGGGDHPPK

In the case of Recombinant catalytic subunit of PKA, the “in vitro kinase assay ([γ-32P]ATP, PhosphorImager)” value is reported as “Only alteration of Thr^1548 abolished the phosphorylation of LRP6C by PKA” in series [1], “the intracellular domain of LRP5 was not phosphorylated” in series [2] and “the intracellular domain of LRP6 (LRP6C) was phosphorylated by PKA” in series [3].
With `[F][Al-]([F])([F])[F]` [AlF4^−], in the series with LRP6-Gαs interaction (setting [6]), the “interaction of LRP6 with Gαs” value is “blocked” and the “interaction of LRP6 with Gβ1” value was “blocked”.
With “5′-UGCCAAGAAGGCUGAGUCG-3′ (listed as RNA, chemistry not given here) [siRNA specific for axin]”, in the series on LRP6-Gαs interaction (knockdown of axin vs scrambled control siRNA, PTH(1-34) 50 nM), the “PTH-induced interaction between Gαs and LRP6” value is listed as “not affected”.
On to “PTH(1-34): a C-terminal-truncated synthetic analog of PTH that has an anabolic effect on bone formation in humans (SVSEIQLMHNLGKHLNSMERVEWLRKKLQDVHNF)”, for which, in the series with cAMP production, the “time to plateau of the cyan-to-yellow emission ratio” value fell in the range of 4 to 6 min and the “time to rapid change in the ratio of cyan-to-yellow emissions (indication of cAMP production)” value is recorded as no more than 30 s. Also, the “interaction between Gαs and LRP6” value in the series with LRP6-Gαs interaction (HEK 293 cells with PTH1R and VSVG-tagged LRP6, PTH(1-34) 50 nM, within S min of treatment, further enhanced at 30 min) is listed as “enhanced”. For the same molecule, in the series on LRP5-Gαs interaction, the “association of Gαs with LRP5” value is “did not enhance”.
As for Recombinant GSK-3, the “in vitro kinase assay (sequential PKA and GSK-3)” value in series [4] and in series [1] was “Both mutants abolished the phosphorylation of LRP6 by GSK-3” in each case. Further, the “in vitro kinase assay (PKA with cold ATP, then GSK-3 with [γ-32P]ATP)” value in series [3] is given as “pretreatment with recombinant PKA enhanced the phosphorylation of LRP6 by GSK-3”.

B1: Gαs (endogenous, from HEK 293 cell lysates) (other, human, UniProt P63092 2-394, looked up)
chain: GCLGNSKTEDQRNEEKAQREANKKIEKQLQKDKQVYRATHRLLLLGAGESGKSTIVKQMRILHVNGFNGEGGEEDPQAARSNSDGEKATKVQDIKNNLKEAIETIVAAMSNLVPPVELANPENQFRVDYILSVMNVPDFDFPPEFYEHAKALWEDEGVRACYERSNEYQLIDCAQYFLDKIDVIKQADYVPSDQDLLRCRVLTSGIFETKFQVDKVNFHMFDVGGQRDERRKWIQCFNDVTAIIFVVASSSYNMVIREDNQTNRLQEALNLFKSIWNNRWLRTISVILFLNKQDLLAEKVLAGKSKIEDYFPEFARYTTPEDATPEPGEDPRVTRAKYFIRDEFLRISTASGDGRHYCYPHFTCAVDTENIRRVFNDCRDIIQRMHLRQYELL
notes: Present in whole-cell lysate, so other proteins (Gβγ) may be associated with it; also called Gas; αs subunit of the G protein
B1: the binding result in series [5] is listed as “binds”.
